From patent US20150335719A1, “Intravitreal Injection of a Chimeric Phage Endolysin Ply187; Protection from Staphylococcus aureus Endophthalmitis” (priority 2014, published 2015)

Columns and labels:
[1] = test system: S. aureus RN6390; test: Mouse S. aureus endophthalmitis: bacterial burden in eyes (plate count); assay type: in vivo, C57BL/6 mice; conditions: 24 h after treatment
Source text: FIGS. 4 A, B and C depict the effect of chimeric Ply187AN-KSH3b on bacterial growth in vivo and in the vitreous humor (VH) in vitro and with increasing inoculums in vitro respectively. […] Twenty-four hours after the treatment, the eyes were enucleated, homogenized and the bacterial burden was estimated via serial dilution plating. FIG. 4B depicts a test showing the effect of the vitreous humor on Ply187AN-KSH3b antimicrobial activity where Ply187AN-KSH3b was mixed with calf vitreous humor and inoculated with 10^5 CFU of S. aureus. The survival of the bacteria was enumerated by CFU count at 2, 4 and 6 h of incubation. Statistical analysis was performed using unpaired student's t test (*, p<0.05; **, p<0.005; ***, p<0.0005). […] An increasing number of dilutions (1:10,000 to 1:10) of logarithmic phase of S. aureus (RN6390 strain) were treated with Ply187AN-KSH3b for 1 h followed by CFU enumeration on TSA plates. Statistical analysis was performed using unpaired student's t test (*, p<0.05; **, p<0.005; ***, p<0.0005).
The bacterial burden in both chimeric Ply187AN-KSH3b- and vehicle-treated eyes was estimated using a bacterial plate count method. At the desired time point, the eyes were enucleated and homogenized in sterile PBS by stainless steel beads using Tissue lyser (Qiagen, Valencia, Calif.). […] The results were expressed as the mean number of CFU/eye ±SEM.

[2] = test system: S. aureus (strain RN6390, USA 300, R 2932, R 2952, R 3000) biofilms; test: Biofilm disruption (Live/Dead BacLight staining and CFU count); assay type: cell-based, Staphylococcus aureus; conditions: 24 h biofilms treated for 30 min
Procedure: FIGS. 2A-2E depicts the biofilm disruption activity of chimeric Ply187AN-KSH3b. In FIG. 2A-2E, either chimeric Ply187AN-KSH3b or EB (EB C) or Gentamicin (for MDR/MRSA strains/isolates) was applied to cover slips containing S. aureus RN6390 (FIG. 2A), USA 300 (FIG. 2B), R 2932 (FIG. 2C), R 2952 (FIG. 2D) and R3000 (FIG. 2E) biofilms for 30 min. Bacterial killing was assessed via Live/Dead™ staining and subsequent fluorescence microscopy. FIG. 2F depicts the viability of biofilm associated bacteria enumerated by CFU count. Error bars represent the mean±SEM of two independent experiments performed in triplicate.
Biofilm disruption by the chimeric Ply187AN-KSH3b was observed using Live/Dead BacLight™ staining which takes advantage of SYTO™ 9, a green-fluorescent nucleic acid stain and propidium iodide that fluoresces red. SYTO™ 9 labels a bacterial population with an intact membrane and fluoresces green. In contrast, propidium iodide penetrates bacteria with damaged membranes and fluoresces red. Briefly, static biofilms of S. aureus (strain RN6390, USA 300, R 2932, R 2952, R 3000) were grown on glass cover slips in 6 well tissue culture plates in fresh TSB media seeded with S. aureus. After incubation at 37° C. for 24 h, the biofilms were treated for an additional 30 min with chimeric Ply187AN-KSH3b (as per MIC) diluted in EB or with EB/gentamicin alone. The biofilms were then stained with the Live/Dead BacLight™ bacterial viability kit (Invitrogen, Carlsbad, Calif.), per manufacturer's instruction. The cover slips were washed three times with PBS to remove excess stain and cell debris, mounted with mounting oil on a glass slide, and examined with an Eclipse 90i fluorescence microscope (Nikon, Melville, N.Y.).

[3] = test system: S. aureus RN6390 (MSSA); test: MIC against S. aureus strains (Table 1); assay type: cell-based, Staphylococcus aureus; conditions: mean of three experiments ± SEM
Procedure: (§1) For in vivo studies, an antibiotic sensitive S. aureus (SA) strain RN6390 was used to induce endophthalmitis; whereas, the in vitro studies were performed using antibiotic-resistant strains (Table 1), including USA300, a community-associated methicillin resistant S. aureus (CA-MRSA), and three clinical isolates R2932 (CA-MRSA), R2952 and R3000 (both being hospital-associated MRSA, […]), […]) kindly provided by Dr. Michael J. Rybak (Department of Pharmaceutical Sciences, Wayne State University, Detroit, Mich.). All bacteria were routinely cultured in TSB broth (Tryptic Soy broth, Sigma, St Louis, Mo.) or on TSB agar plates.
(§2) To verify and quantify the lytic activity against live S. aureus, we have tested Ply187AN-KSH3b in the Turbidity Reduction Assay. The turbidity assay measures the drop in optical density (OD) resulting from lysis of the target bacteria with the phage endolysin-derived protein. Turbidity reduction assays by chimeric Ply187AN-KSH3b were performed in a 96 well plate as described previously by Becker et al. (2009a, 2009b, supra). Briefly, S. aureus strains/isolates RN6390, USA 300, and clinical isolates R2932, R2952 and R3000 were grown to logarithmic phase (OD600 0.4-0.6) at 37° C. in tryptic Soy broth (TSB). The culture was harvested by centrifugation and the pellet was resuspended in assay buffer (400 mM NaCl, 20 mM Tris HCl, 1% glycerol, pH 7.5). Bacterial cultures (100 μl/well) were mixed with 100 μl of (as per MIC) of chimeric Ply187AN-KSH3b protein diluted in the same assay buffer. The reduction in the turbidity was measured after every 5 min up to 1 h using a micro plate reader. EB diluted in the same assay buffer (without chimeric Ply187AN-KSH3b protein) was used as a control (EB C). Resistance development against chimeric Ply187AN-KSH3b was tested using repeated exposure in an MIC assay as described by Rodriguez-Rubio and co-workers (Rodriguez-Rubio et al., PLoS One 8:e64671.). In brief, bacterial cultures (10^5 CFU/well) were exposed overnight to a 2-fold serial dilution of chimeric Ply187AN-KSH3b, lysostaphin, and gentamicin, where the latter serve as controls. In every round, 100 μl culture from the wells with growth (½ MIC value) were inoculated into fresh TSB and grown up to logarithmic phase. These cultures were used for the next round of MIC exposure. Bacteria surviving after 10 rounds were grown for an additional 5 rounds in TSB without any selection pressure to allow phenotype-reversion, then MIC were performed to measure the sensitivity to the chimeric Ply187AN-KSH3b after non-selective growth.

[4] = test system: S. aureus R 2932 (CA-MRSA); test: MIC against S. aureus strains (Table 1); assay type: cell-based, Staphylococcus aureus; conditions: mean of three experiments ± SEM
Procedure: as §1, §2

[5] = test system: S. aureus R 3000 (HA-MRSA); test: MIC against S. aureus strains (Table 1); assay type: cell-based, Staphylococcus aureus; conditions: mean of three experiments ± SEM
Procedure: as §1, §2

[6] = test system: S. aureus R 2952 (HA-MRSA); test: MIC against S. aureus strains (Table 1); assay type: cell-based, Staphylococcus aureus; conditions: mean of three experiments ± SEM
Procedure: as §1, §2

[7] = test system: S. aureus USA 300 (CA-MRSA); test: MIC against S. aureus strains (Table 1); assay type: cell-based, Staphylococcus aureus; conditions: mean of three experiments ± SEM
Procedure: as §1, §2

B1: Ply187AN-KSH3b: staphylococcal peptidoglycan hydrolase fusion protein: endopeptidase domain of prophage endolysin Ply187 plus SH3b cell wall-binding domain of phage K endolysin LysK (SEQ ID NO:1) (protein)
chain: MALPKTGKPTAKQVVDWAINLIGSGVDVDGYYGRQCWDLPNYIFNRYWNFKTPGNARDMAWYRYPEGFKVFRNTSDFVPKPGDIAVWTGGNYNWNTWGHTGIVVGPSTKSYFYSVDQNWNNSNSYVGSPAAKIKHSYFGVTHFVRPAYKAEPKPTPPLESTPATRPVTGSWKKNQYGTWYKPENATFVNGNQPIVTRIGSPFLNAPVGGNLPAGATIVYDEVCIQAGHIWIGYNAYNGNRVYCPVRTCQGVPPNQIPGVAWGVFKVEHHHHHH
modifications: Chemically Synthesized Fusion Protein
[1]; treatment 6 h post infection
  bacterial burden recovered: 3.6×10^3 CFU/eye
[1]; treatment 12 h post infection
  bacterial burden recovered: 2.9×10^4 CFU/eye
[2]
  biofilm disruption by Live/Dead staining: successfully disrupted biofilms
[2]; all strains tested
  CFU counts of biofilm associated bacteria: almost zero
[3]
  MIC: 4.16 ± 1.04 mg/L
[4]
  MIC: 4.16 ± 1.04 mg/L
[5]
  MIC: 4.16 ± 1.04 mg/L
[6]
  MIC: 8.33 ± 2.08 mg/L
[7]
  MIC: 4.16 ± 1.04 mg/L
